Source: patent publication US20150344570A1 (published 2015)

T1: FcγRIIa H (human, UniProt P12318 34-217)
T1 construct: extracellular domain; also called FcgRIIa H; FcγRIIa type H
T1 sequence (looked up): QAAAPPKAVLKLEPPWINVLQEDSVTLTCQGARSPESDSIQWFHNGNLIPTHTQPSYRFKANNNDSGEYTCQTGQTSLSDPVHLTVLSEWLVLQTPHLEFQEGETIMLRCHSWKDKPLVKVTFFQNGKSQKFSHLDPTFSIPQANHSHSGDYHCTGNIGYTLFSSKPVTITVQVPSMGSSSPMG

T2: FcγRIIb (human, UniProt P31994 43-217)
T2 construct: extracellular domain; also called FcgRIIb; 2b
T2 sequence (looked up): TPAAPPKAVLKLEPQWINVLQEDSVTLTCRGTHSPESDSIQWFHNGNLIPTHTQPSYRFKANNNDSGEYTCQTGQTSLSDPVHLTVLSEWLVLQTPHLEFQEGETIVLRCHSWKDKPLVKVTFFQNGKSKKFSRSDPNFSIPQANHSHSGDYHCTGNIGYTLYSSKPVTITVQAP

T3: FcγRIIb extracellular domain with C-terminal His tag (human, UniProt P31994 43-217)
T3 construct: extracellular domain; also called 2b; FcgRIIb; not shown: His tag at the C terminus
T3 sequence (looked up): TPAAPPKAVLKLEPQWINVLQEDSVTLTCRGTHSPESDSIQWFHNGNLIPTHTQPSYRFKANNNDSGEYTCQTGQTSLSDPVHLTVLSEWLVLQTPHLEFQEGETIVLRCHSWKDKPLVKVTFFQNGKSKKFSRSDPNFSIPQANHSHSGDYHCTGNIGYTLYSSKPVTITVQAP


Assays:
FcγRIIa H [1] = molecular target: T1, FcγRIIa H; assay: SPR (Biacore), antibody captured, FcγR analyte; binding relative to GpH7-A5/GpH7-B3/GpL16-k0 = 100
FcγRIIb = molecular target: T2, FcγRIIb; assay: as above
FcγRIIa H [2] = molecular target: T1, FcγRIIa H; assay: SPR (Biacore); He/Con_2aH divided by He/Con_2b (FcγRIIa H over FcγRIIb)
[3] = molecular target: T3, FcγRIIb extracellular domain with …; assay: SPR (Biacore), relative to GpH7-A5/GpH7-B3/GpL16-k0 = 100
[4] = molecular target: T4, FcγRIIIa extracellular domain with C-terminal His tag (human, UniProt P08637 17-208); assay: as above
T4 construct: extracellular domain; also called 3a; FcgRIIIa; not shown: His tag at the C terminus

[5] = molecular target: T4, FcγRIIIa extracellular domain with …; assay: SPR (Biacore); ratio of He/Con_3a (FcγRIIIa) to He/Con_2b (FcγRIIb)

T4 sequence (P08637 17-208): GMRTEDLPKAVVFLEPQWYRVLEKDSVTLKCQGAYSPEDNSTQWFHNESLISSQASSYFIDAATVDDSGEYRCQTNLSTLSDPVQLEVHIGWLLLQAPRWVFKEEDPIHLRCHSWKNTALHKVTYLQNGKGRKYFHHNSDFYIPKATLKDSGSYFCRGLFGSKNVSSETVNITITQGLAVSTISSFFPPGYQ

Binder | He/Con_2aH (FcγRIIa H [1]) | He/Con_2b (FcγRIIb) | He_2aH/2b (IIaH/IIb) (FcγRIIa H [2]) [ratio] | He/Con_2b [3] | He/Con_3a [4] | He_3a/2b (IIIa/IIb) [5]
GpH7-A5/GpH7-B3 variant L235_20W/GpL16-k0 (antibody, human IgG1, kappa, Heterodimerized antibody, alteration in one H chain only; also called He Ab L235W) heavy 1: not shown heavy 2: not shown light: DIVMTQSPLSLPVTPGEPASISCQASESLVHSNRNTYLHWYLQKPGQSPQLLIYKVSNRFSGVPDRFSGSGSGTDFTLKISRVEAEDVGVYYCSQNTHVPPTFGQGTKVEIERTVAAPSVFIFPPSDEQLKSGTASVVCLLNNFYPREAKVQWKVDNALQSGNSQESVTEQDSKDSTYSLSSTLTLSKADYEKHKVYACEVTHQGLSSPVTKSFNRGEC | 118 % of control | 147 % of control | 0.8 | – | – | –
GpH7-A5/GpH7-B3 variant G236_18N/GpL16-k0 (antibody, human IgG1, kappa, IgG1, anti-glypican-3; also called He Ab) heavy 1: not shown heavy 2: not shown light: DIVMTQSPLSLPVTPGEPASISCQASESLVHSNRNTYLHWYLQKPGQSPQLLIYKVSNRFSGVPDRFSGSGSGTDFTLKISRVEAEDVGVYYCSQNTHVPPTFGQGTKVEIERTVAAPSVFIFPPSDEQLKSGTASVVCLLNNFYPREAKVQWKVDNALQSGNSQESVTEQDSKDSTYSLSSTLTLSKADYEKHKVYACEVTHQGLSSPVTKSFNRGEC | – | – | – | 96.4 % (control = 100) | 37.8 % (control = 100) | 0.39
GpH7-A5/GpH7-B3 variant G237_19Q/GpL16-k0 (antibody, human IgG1, kappa, Heterodimerized antibody, alteration in one H chain only; also called He Ab G237Q) heavy 1: not shown heavy 2: not shown light: DIVMTQSPLSLPVTPGEPASISCQASESLVHSNRNTYLHWYLQKPGQSPQLLIYKVSNRFSGVPDRFSGSGSGTDFTLKISRVEAEDVGVYYCSQNTHVPPTFGQGTKVEIERTVAAPSVFIFPPSDEQLKSGTASVVCLLNNFYPREAKVQWKVDNALQSGNSQESVTEQDSKDSTYSLSSTLTLSKADYEKHKVYACEVTHQGLSSPVTKSFNRGEC | 26.5 % of control | 108 % of control | 0.25 | – | – | –
GpH7-A5/GpH7-B3 variant P238_03V/GpL16-k0 (antibody, human IgG1, kappa, Heterodimerized antibody, alteration in one H chain only; also called He Ab P238V) heavy 1: not shown heavy 2: not shown light: DIVMTQSPLSLPVTPGEPASISCQASESLVHSNRNTYLHWYLQKPGQSPQLLIYKVSNRFSGVPDRFSGSGSGTDFTLKISRVEAEDVGVYYCSQNTHVPPTFGQGTKVEIERTVAAPSVFIFPPSDEQLKSGTASVVCLLNNFYPREAKVQWKVDNALQSGNSQESVTEQDSKDSTYSLSSTLTLSKADYEKHKVYACEVTHQGLSSPVTKSFNRGEC | 89 % of control | 120 % of control | 0.74 | – | – | –
GpH7-A5/GpH7-B3 variant L235_09D/GpL16-k0 (antibody, human IgG1, kappa, Heterodimerized antibody, alteration in one H chain only; also called He Ab L235D) heavy 1: not shown heavy 2: not shown light: DIVMTQSPLSLPVTPGEPASISCQASESLVHSNRNTYLHWYLQKPGQSPQLLIYKVSNRFSGVPDRFSGSGSGTDFTLKISRVEAEDVGVYYCSQNTHVPPTFGQGTKVEIERTVAAPSVFIFPPSDEQLKSGTASVVCLLNNFYPREAKVQWKVDNALQSGNSQESVTEQDSKDSTYSLSSTLTLSKADYEKHKVYACEVTHQGLSSPVTKSFNRGEC | 75.8 % of control | 106 % of control | 0.71 | – | – | –
GpH7-A5/GpH7-B3 variant P238_06M/GpL16-k0 (antibody, human IgG1, kappa, Heterodimerized antibody, alteration in one H chain only; also called He Ab P238M) heavy 1: not shown heavy 2: not shown light: DIVMTQSPLSLPVTPGEPASISCQASESLVHSNRNTYLHWYLQKPGQSPQLLIYKVSNRFSGVPDRFSGSGSGTDFTLKISRVEAEDVGVYYCSQNTHVPPTFGQGTKVEIERTVAAPSVFIFPPSDEQLKSGTASVVCLLNNFYPREAKVQWKVDNALQSGNSQESVTEQDSKDSTYSLSSTLTLSKADYEKHKVYACEVTHQGLSSPVTKSFNRGEC | 47.6 % of control | 174 % of control | 0.27 | – | – | –
GpH7-A5/GpH7-B3 variant G236_11K/GpL16-k0 (antibody, human IgG1, kappa, IgG1, anti-glypican-3; also called He Ab) heavy 1: not shown heavy 2: not shown light: DIVMTQSPLSLPVTPGEPASISCQASESLVHSNRNTYLHWYLQKPGQSPQLLIYKVSNRFSGVPDRFSGSGSGTDFTLKISRVEAEDVGVYYCSQNTHVPPTFGQGTKVEIERTVAAPSVFIFPPSDEQLKSGTASVVCLLNNFYPREAKVQWKVDNALQSGNSQESVTEQDSKDSTYSLSSTLTLSKADYEKHKVYACEVTHQGLSSPVTKSFNRGEC | – | – | – | 49.8 % (control = 100) | 18.6 % (control = 100) | 0.37
GpH7-A5/GpH7-B3 variant G237_20W/GpL16-k0 (antibody, human IgG1, kappa, Heterodimerized antibody, alteration in one H chain only; also called He Ab G237W) heavy 1: not shown heavy 2: not shown light: DIVMTQSPLSLPVTPGEPASISCQASESLVHSNRNTYLHWYLQKPGQSPQLLIYKVSNRFSGVPDRFSGSGSGTDFTLKISRVEAEDVGVYYCSQNTHVPPTFGQGTKVEIERTVAAPSVFIFPPSDEQLKSGTASVVCLLNNFYPREAKVQWKVDNALQSGNSQESVTEQDSKDSTYSLSSTLTLSKADYEKHKVYACEVTHQGLSSPVTKSFNRGEC | 31.6 % of control | 193 % of control | 0.16 | – | – | –
GpH7-A5/GpH7-B3 variant G236_10E/GpL16-k0 (antibody, human IgG1, kappa, IgG1, anti-glypican-3; also called He Ab) heavy 1: not shown heavy 2: not shown light: DIVMTQSPLSLPVTPGEPASISCQASESLVHSNRNTYLHWYLQKPGQSPQLLIYKVSNRFSGVPDRFSGSGSGTDFTLKISRVEAEDVGVYYCSQNTHVPPTFGQGTKVEIERTVAAPSVFIFPPSDEQLKSGTASVVCLLNNFYPREAKVQWKVDNALQSGNSQESVTEQDSKDSTYSLSSTLTLSKADYEKHKVYACEVTHQGLSSPVTKSFNRGEC | – | – | – | 110 % (control = 100) | 70.7 % (control = 100) | 0.64
